Data: US20150376260A1

Experiments:
[1] = target: CD80 (B7.1), human, on lymphatic cancer cell lines (human) (UniProt P33681); assay: cell-based or functional assay
[2] = target: CD86 (B7.2), human, on lymphatic cancer cell lines (human) (UniProt P42081); assay: cell-based or functional assay
Chain of UniProt P42081 (P42081 24-329): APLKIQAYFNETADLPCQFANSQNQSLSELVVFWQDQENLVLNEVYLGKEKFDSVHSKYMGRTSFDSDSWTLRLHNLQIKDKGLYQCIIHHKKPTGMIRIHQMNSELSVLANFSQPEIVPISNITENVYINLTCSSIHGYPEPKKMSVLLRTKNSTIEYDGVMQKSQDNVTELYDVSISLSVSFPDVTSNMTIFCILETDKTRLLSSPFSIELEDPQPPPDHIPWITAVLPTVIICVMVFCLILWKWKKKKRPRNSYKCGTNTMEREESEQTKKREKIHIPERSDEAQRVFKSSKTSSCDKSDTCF

Chain of UniProt P33681 (P33681 35-288): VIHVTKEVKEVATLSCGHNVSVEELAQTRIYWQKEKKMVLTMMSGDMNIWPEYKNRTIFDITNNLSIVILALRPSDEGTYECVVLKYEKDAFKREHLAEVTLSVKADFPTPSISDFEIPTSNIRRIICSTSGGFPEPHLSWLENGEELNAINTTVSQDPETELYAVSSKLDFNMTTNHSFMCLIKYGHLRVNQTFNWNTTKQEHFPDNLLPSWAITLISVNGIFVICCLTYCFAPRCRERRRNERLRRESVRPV

Q: How did the cancer killing activity (in-vitro bioassay, MTS cell viability) on lymphatic cancer cells [1] turn out when CTLA4-FasL fusion protein was run?
A: 0.02 nM

Q: And the cancer killing activity (in-vitro bioassay, MTS cell viability) on lymphatic cancer cells [2]?
A: 0.02 nM
